The text below walks through data of publication PMC5701133.

The target in the data set is JMJD6 full-length;BRD4 ET domain (human?;human, UniProt Q6NYC1;O60885 1-403;601-683, |). As to the kind of experiment: thermal shift (DSF); with BRD4 ET; Tm […] C (+[…] C vs JMJD6/ssRNA); DSF: PBS pH 7.4, 1 uM JMJD6, 1 uM oligonucleotide, ET 1-100 uM, SYPRO Orange, 25-95 C at 1 C/min.

AUACGAUGCUUUACGGUGCUAUUUUGU (ssRNA) [ssRNA 27-nt]: the binding result is “binds”.
